Consider four molecules from patent US20260001928A1 (CORTERIA PHARMACEUTICALS, priority 2022, published 2026).

*1 amine or outer side, *2 acyl side, *3 side chain or, on linkers, in order; H or OH if unused. Where no end group is shown, it is not given here. Side-chain parts run from the residue outwards. [ ]: non-standard residue; d: D form. The star is where a group is joined. C18 diacid = O=C(O)CCCCCCCCCCCCCCCCC(=O)*; γGlu = O=C(O)[C@H](CCC(=O)[*:2])N[*:1]; C12 diacid = O=C(O)CCCCCCCCCCC(=O)*; NMeI = CC[C@H](C)[C@H](NC)C(=O)O; Api = NC1(C(=O)O)CCNCC1; Pentanoyl = CCCCC(=O)*; Aib = CC(C)(N)C(=O)O

Test [1] has as its target T1, CRF1R receptor (UniProt P34998 24-415, limits assumed).
T1 sequence (looked up): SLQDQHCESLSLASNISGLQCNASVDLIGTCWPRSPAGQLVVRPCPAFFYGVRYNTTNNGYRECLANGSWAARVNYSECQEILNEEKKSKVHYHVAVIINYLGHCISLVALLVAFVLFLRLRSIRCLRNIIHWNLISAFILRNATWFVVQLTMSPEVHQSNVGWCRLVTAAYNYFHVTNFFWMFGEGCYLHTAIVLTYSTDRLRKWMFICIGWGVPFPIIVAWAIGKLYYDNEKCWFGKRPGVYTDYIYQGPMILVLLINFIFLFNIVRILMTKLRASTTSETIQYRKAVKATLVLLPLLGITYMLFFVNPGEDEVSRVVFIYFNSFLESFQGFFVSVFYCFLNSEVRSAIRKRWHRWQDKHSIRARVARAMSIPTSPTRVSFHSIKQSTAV
As to the kind of experiment: cell-based or functional assay.

In test [2] the target is human corticotropin-releasing factor 2a (CRF2a receptor) (human), Q13324. Description: cell-based or functional assay.
human corticotropin-releasing factor 2a (CRF2a receptor) (human), Q13324, sequence (Q13324 20-411): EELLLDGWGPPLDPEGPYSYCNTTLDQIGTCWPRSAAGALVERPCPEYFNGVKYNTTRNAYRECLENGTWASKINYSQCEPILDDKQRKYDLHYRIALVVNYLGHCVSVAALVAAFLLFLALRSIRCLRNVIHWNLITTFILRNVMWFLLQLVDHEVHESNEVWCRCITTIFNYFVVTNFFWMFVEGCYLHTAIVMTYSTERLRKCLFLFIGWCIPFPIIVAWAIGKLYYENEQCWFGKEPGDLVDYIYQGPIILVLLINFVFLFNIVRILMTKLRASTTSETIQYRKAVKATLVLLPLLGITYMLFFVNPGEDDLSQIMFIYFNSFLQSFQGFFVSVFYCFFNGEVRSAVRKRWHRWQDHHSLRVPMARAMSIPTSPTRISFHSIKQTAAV

B1: SEQ ID NO 187 (peptide)
peptide: Ac-IVLSLD[dV]PIKLK([γGlu-C18 diacid])KILLEQEKQKAQREQAETN[Api]QILAQV-NH2
SMILES: CC[C@H](C)[C@H](NC(C)=O)C(=O)N[C@H](C(=O)N[C@@H](CC(C)C)C(=O)N[C@@H](CO)C(=O)N[C@@H](CC(C)C)C(=O)N[C@@H](CC(=O)O)C(=O)N[C@@H](C(=O)N1CCC[C@H]1C(=O)N[C@H](C(=O)N[C@@H](CCCCN)C(=O)N[C@@H](CC(C)C)C(=O)N[C@@H](CCCCNC(=O)CC[C@H](NC(=O)CCCCCCCCCCCCCCCCC(=O)O)C(=O)O)C(=O)N[C@@H](CCCCN)C(=O)N[C@H](C(=O)N[C@@H](CC(C)C)C(=O)N[C@@H](CC(C)C)C(=O)N[C@@H](CCC(=O)O)C(=O)N[C@@H](CCC(N)=O)C(=O)N[C@@H](CCC(=O)O)C(=O)N[C@@H](CCCCN)C(=O)N[C@@H](CCC(N)=O)C(=O)N[C@@H](CCCCN)C(=O)N[C@@H](C)C(=O)N[C@@H](CCC(N)=O)C(=O)N[C@@H](CCCNC(=N)N)C(=O)N[C@@H](CCC(=O)O)C(=O)N[C@@H](CCC(N)=O)C(=O)N[C@@H](C)C(=O)N[C@@H](CCC(=O)O)C(=O)N[C@H](C(=O)N[C@@H](CC(N)=O)C(=O)NC1(C(=O)N[C@@H](CCC(N)=O)C(=O)N[C@H](C(=O)N[C@@H](CC(C)C)C(=O)N[C@@H](C)C(=O)N[C@@H](CCC(N)=O)C(=O)N[C@H](C(N)=O)C(C)C)[C@@H](C)CC)CCNCC1)[C@@H](C)O)[C@@H](C)CC)[C@@H](C)CC)C(C)C)C(C)C
With B1, in test [1], the EC50 (commonly the midpoint of the concentration-response curve) is 195 nM and the “Emax (% I)” value was 37%. In addition, the EC50 [nM] (cAMP) in test [2] turned out to be 0.26 nM.

B2: SEQ ID NO 186 (peptide)
peptide: [NMeI]VLSLD[dV]PIKLK([γGlu-C12 diacid])KILLEQEKQKKQREQAETN[Aib]QILAQV-NH2
modifications: N-terminus assumed
SMILES: CC[C@H](C)[C@H](NC)C(=O)N[C@H](C(=O)N[C@@H](CC(C)C)C(=O)N[C@@H](CO)C(=O)N[C@@H](CC(C)C)C(=O)N[C@@H](CC(=O)O)C(=O)N[C@@H](C(=O)N1CCC[C@H]1C(=O)N[C@H](C(=O)N[C@@H](CCCCN)C(=O)N[C@@H](CC(C)C)C(=O)N[C@@H](CCCCNC(=O)CC[C@H](NC(=O)CCCCCCCCCCC(=O)O)C(=O)O)C(=O)N[C@@H](CCCCN)C(=O)N[C@H](C(=O)N[C@@H](CC(C)C)C(=O)N[C@@H](CC(C)C)C(=O)N[C@@H](CCC(=O)O)C(=O)N[C@@H](CCC(N)=O)C(=O)N[C@@H](CCC(=O)O)C(=O)N[C@@H](CCCCN)C(=O)N[C@@H](CCC(N)=O)C(=O)N[C@@H](CCCCN)C(=O)N[C@@H](CCCCN)C(=O)N[C@@H](CCC(N)=O)C(=O)N[C@@H](CCCNC(=N)N)C(=O)N[C@@H](CCC(=O)O)C(=O)N[C@@H](CCC(N)=O)C(=O)N[C@@H](C)C(=O)N[C@@H](CCC(=O)O)C(=O)N[C@H](C(=O)N[C@@H](CC(N)=O)C(=O)NC(C)(C)C(=O)N[C@@H](CCC(N)=O)C(=O)N[C@H](C(=O)N[C@@H](CC(C)C)C(=O)N[C@@H](C)C(=O)N[C@@H](CCC(N)=O)C(=O)N[C@H](C(N)=O)C(C)C)[C@@H](C)CC)[C@@H](C)O)[C@@H](C)CC)[C@@H](C)CC)C(C)C)C(C)C
For B2, the “Emax (% I)” value in test [1] came to 2%. The molecule also displayed an EC50 [nM] (cAMP) in test [2] of 0.79 nM.

B3: SEQ ID NO 185 (peptide)
peptide: Pentanoyl-VLSLD[dV]PIKLK([γGlu-C12 diacid])KILLEQEKQKKQREQAETN[Aib]QILAQV-NH2
SMILES: CCCCC(=O)N[C@H](C(=O)N[C@@H](CC(C)C)C(=O)N[C@@H](CO)C(=O)N[C@@H](CC(C)C)C(=O)N[C@@H](CC(=O)O)C(=O)N[C@@H](C(=O)N1CCC[C@H]1C(=O)N[C@H](C(=O)N[C@@H](CCCCN)C(=O)N[C@@H](CC(C)C)C(=O)N[C@@H](CCCCNC(=O)CC[C@H](NC(=O)CCCCCCCCCCC(=O)O)C(=O)O)C(=O)N[C@@H](CCCCN)C(=O)N[C@H](C(=O)N[C@@H](CC(C)C)C(=O)N[C@@H](CC(C)C)C(=O)N[C@@H](CCC(=O)O)C(=O)N[C@@H](CCC(N)=O)C(=O)N[C@@H](CCC(=O)O)C(=O)N[C@@H](CCCCN)C(=O)N[C@@H](CCC(N)=O)C(=O)N[C@@H](CCCCN)C(=O)N[C@@H](CCCCN)C(=O)N[C@@H](CCC(N)=O)C(=O)N[C@@H](CCCNC(=N)N)C(=O)N[C@@H](CCC(=O)O)C(=O)N[C@@H](CCC(N)=O)C(=O)N[C@@H](C)C(=O)N[C@@H](CCC(=O)O)C(=O)N[C@H](C(=O)N[C@@H](CC(N)=O)C(=O)NC(C)(C)C(=O)N[C@@H](CCC(N)=O)C(=O)N[C@H](C(=O)N[C@@H](CC(C)C)C(=O)N[C@@H](C)C(=O)N[C@@H](CCC(N)=O)C(=O)N[C@H](C(N)=O)C(C)C)[C@@H](C)CC)[C@@H](C)O)[C@@H](C)CC)[C@@H](C)CC)C(C)C)C(C)C
On to B3, for which, in test [1], the “Emax (% I)” value came out at 2%. In addition, in test [2], the EC50 [nM] (cAMP) stood at 3.54 nM.

B4: SEQ ID NO 184 (peptide)
peptide: Ac-IVLSLD[dV]PIKLK([γGlu-C12 diacid])KILLEQEKQK[Aib]QREQAETN[Api]QILAQV-NH2
SMILES: CC[C@H](C)[C@H](NC(C)=O)C(=O)N[C@H](C(=O)N[C@@H](CC(C)C)C(=O)N[C@@H](CO)C(=O)N[C@@H](CC(C)C)C(=O)N[C@@H](CC(=O)O)C(=O)N[C@@H](C(=O)N1CCC[C@H]1C(=O)N[C@H](C(=O)N[C@@H](CCCCN)C(=O)N[C@@H](CC(C)C)C(=O)N[C@@H](CCCCNC(=O)CC[C@H](NC(=O)CCCCCCCCCCC(=O)O)C(=O)O)C(=O)N[C@@H](CCCCN)C(=O)N[C@H](C(=O)N[C@@H](CC(C)C)C(=O)N[C@@H](CC(C)C)C(=O)N[C@@H](CCC(=O)O)C(=O)N[C@@H](CCC(N)=O)C(=O)N[C@@H](CCC(=O)O)C(=O)N[C@@H](CCCCN)C(=O)N[C@@H](CCC(N)=O)C(=O)N[C@@H](CCCCN)C(=O)NC(C)(C)C(=O)N[C@@H](CCC(N)=O)C(=O)N[C@@H](CCCNC(=N)N)C(=O)N[C@@H](CCC(=O)O)C(=O)N[C@@H](CCC(N)=O)C(=O)N[C@@H](C)C(=O)N[C@@H](CCC(=O)O)C(=O)N[C@H](C(=O)N[C@@H](CC(N)=O)C(=O)NC1(C(=O)N[C@@H](CCC(N)=O)C(=O)N[C@H](C(=O)N[C@@H](CC(C)C)C(=O)N[C@@H](C)C(=O)N[C@@H](CCC(N)=O)C(=O)N[C@H](C(N)=O)C(C)C)[C@@H](C)CC)CCNCC1)[C@@H](C)O)[C@@H](C)CC)[C@@H](C)CC)C(C)C)C(C)C
Consider B4, for which the “Emax (% I)” value in test [1] worked out at 3%. This molecule also showed an EC50 [nM] (cAMP) in test [2] of 4.25 nM.
